B1: S. cerevisiae Abp1 (full length; SH3 domain 535-592 mutated) / Hua2 (parent)
chain 1: MALEPIDYTTHSREIDAEYLKIVRGSDPDTTWLIISPNAKKEYEPESTGSSFHDFLQLFDETKVQYGLARVSPPGSDVEKIIIIGWCPDSAPLKTRASFAANFAAVANNLFKGYHVQVTARDEDDLDENELLMKISNAAGARYSIQTSSKQQGKASTPPVKKSFTPSKSPAPVSKKEPVKTPSPAPAAKISSRVNDNNDDDDWNEPELKERDFDQAPLKPNQSSYKPIGKIDLQKVIAEEKAKEDPRLVQKPTAAGSKIDPSSDIANLKNESKLKRDSEFNSFLGTTKPPSMTESSLKNDDDKVIKGFRNEKSPAQLWAERKAKQNSGNAETKAEAPKPEVPEDEPEGEPDVKDLKSKFEGLAASEKEEEEMENKFAPPPKKSEPTIISPKPFSKPQEPVKAEEAEQPKTDYKKIGNPLPGMHIEADNEEEPEENDDDWDDDEDEAAQPPLPSRNVASGAPVQKEEPEQEEIAPSLPSRNSIPAPKQEEAPEQAPEEEIEEEAEEAAPQLPSRSSAAPPPPPRRATPEKKPKENPWATAEYDYDAAEDNELTFVENDKIINIEFVDDDWWLGELEKDGSKGLFPSNYVSLGN
chain 2: MQQTKFGKMYLDHDSVVEYSEDEIVEADRITLGYKKRLSMIENQMRHLLEDFSLDVQQIEPILADLQKYYDAFLQLLQKRNKSLQCKRSTHQPVPSPMNSQTSTNAKVNLSGKLMKFQLNSVQKFDEENILRILQNKIEFEHYFQIDKGKKQKVLLLAVYQCLNGPTRLHKVLNIEGIIHNNSIRTILGKQVSSSKWTVFLYDVKLVLLAHRQDVPNLETSKMIVRYGDLFPCALYFKDHTAY

Variants of: B1
Assay: DHFR protein-fragment complementation in yeast (Abp1-DHFR F[1,2] x partner-DHFR F[3]), deep mutational scanning, second methotrexate selection vs reference
Details: with Hua2; S. cerevisiae, DHFR-PCA selection in liquid with methotrexate at 30 C, two 72 h selections (the score uses the second); reference = the pre-selection culture; not an affinity; value at the no-binding floor (a bound); scale: DMS score: mean over two replicates of log2(f_test/f_ref + 0.5)/ln 2, minus the synonymous-codon median

Variant	screen value
chain 1 MALEPIDYTTHSREIDAEYLKIVRGSDPDTTWLIISPNAKKEYEPESTGSSFHDFLQLFDETKVQYGLARVSPPGSDVEKIIIIGWCPDSAPLKTRASFAANFAAVANNLFKGYHVQVTARDEDDLDENELLMKISNAAGARYSIQTSSKQQGKASTPPVKKSFTPSKSPAPVSKKEPVKTPSPAPAAKISSRVNDNNDDDDWNEPELKERDFDQAPLKPNQSSYKPIGKIDLQKVIAEEKAKEDPRLVQKPTAAGSKIDPSSDIANLKNESKLKRDSEFNSFLGTTKPPSMTESSLKNDDDKVIKGFRNEKSPAQLWAERKAKQNSGNAETKAEAPKPEVPEDEPEGEPDVKDLKSKFEGLAASEKEEEEMENKFAPPPKKSEPTIISPKPFSKPQEPVKAEEAEQPKTDYKKIGNPLPGMHIEADNEEEPEENDDDWDDDEDEAAQPPLPSRNVASGAPVQKEEPEQEEIAPSLPSRNSIPAPKQEEAPEQAPEEEIEEEAEEAAPQLPSRSSAAPPPPPRRATPEKKPKENPWATAEYDYDAAEDNPLTFVENDKIINIEFVDDDWWLGELEKDGSKGLFPSNYVSLGN [chain 1 E550P]	< -3.06
chain 1 MALEPIDYTTHSREIDAEYLKIVRGSDPDTTWLIISPNAKKEYEPESTGSSFHDFLQLFDETKVQYGLARVSPPGSDVEKIIIIGWCPDSAPLKTRASFAANFAAVANNLFKGYHVQVTARDEDDLDENELLMKISNAAGARYSIQTSSKQQGKASTPPVKKSFTPSKSPAPVSKKEPVKTPSPAPAAKISSRVNDNNDDDDWNEPELKERDFDQAPLKPNQSSYKPIGKIDLQKVIAEEKAKEDPRLVQKPTAAGSKIDPSSDIANLKNESKLKRDSEFNSFLGTTKPPSMTESSLKNDDDKVIKGFRNEKSPAQLWAERKAKQNSGNAETKAEAPKPEVPEDEPEGEPDVKDLKSKFEGLAASEKEEEEMENKFAPPPKKSEPTIISPKPFSKPQEPVKAEEAEQPKTDYKKIGNPLPGMHIEADNEEEPEENDDDWDDDEDEAAQPPLPSRNVASGAPVQKEEPEQEEIAPSLPSRNSIPAPKQEEAPEQAPEEEIEEEAEEAAPQLPSRSSAAPPPPPRRATPEKKPKENPWATAEYDYDAAEDNRLTFVENDKIINIEFVDDDWWLGELEKDGSKGLFPSNYVSLGN [chain 1 E550R]	-3
chain 1 MALEPIDYTTHSREIDAEYLKIVRGSDPDTTWLIISPNAKKEYEPESTGSSFHDFLQLFDETKVQYGLARVSPPGSDVEKIIIIGWCPDSAPLKTRASFAANFAAVANNLFKGYHVQVTARDEDDLDENELLMKISNAAGARYSIQTSSKQQGKASTPPVKKSFTPSKSPAPVSKKEPVKTPSPAPAAKISSRVNDNNDDDDWNEPELKERDFDQAPLKPNQSSYKPIGKIDLQKVIAEEKAKEDPRLVQKPTAAGSKIDPSSDIANLKNESKLKRDSEFNSFLGTTKPPSMTESSLKNDDDKVIKGFRNEKSPAQLWAERKAKQNSGNAETKAEAPKPEVPEDEPEGEPDVKDLKSKFEGLAASEKEEEEMENKFAPPPKKSEPTIISPKPFSKPQEPVKAEEAEQPKTDYKKIGNPLPGMHIEADNEEEPEENDDDWDDDEDEAAQPPLPSRNVASGAPVQKEEPEQEEIAPSLPSRNSIPAPKQEEAPEQAPEEEIEEEAEEAAPQLPSRSSAAPPPPPRRATPEKKPKENPWATAEYDYDAAEDNSLTFVENDKIINIEFVDDDWWLGELEKDGSKGLFPSNYVSLGN [chain 1 E550S]	< -3.06
chain 1 MALEPIDYTTHSREIDAEYLKIVRGSDPDTTWLIISPNAKKEYEPESTGSSFHDFLQLFDETKVQYGLARVSPPGSDVEKIIIIGWCPDSAPLKTRASFAANFAAVANNLFKGYHVQVTARDEDDLDENELLMKISNAAGARYSIQTSSKQQGKASTPPVKKSFTPSKSPAPVSKKEPVKTPSPAPAAKISSRVNDNNDDDDWNEPELKERDFDQAPLKPNQSSYKPIGKIDLQKVIAEEKAKEDPRLVQKPTAAGSKIDPSSDIANLKNESKLKRDSEFNSFLGTTKPPSMTESSLKNDDDKVIKGFRNEKSPAQLWAERKAKQNSGNAETKAEAPKPEVPEDEPEGEPDVKDLKSKFEGLAASEKEEEEMENKFAPPPKKSEPTIISPKPFSKPQEPVKAEEAEQPKTDYKKIGNPLPGMHIEADNEEEPEENDDDWDDDEDEAAQPPLPSRNVASGAPVQKEEPEQEEIAPSLPSRNSIPAPKQEEAPEQAPEEEIEEEAEEAAPQLPSRSSAAPPPPPRRATPEKKPKENPWATAEYDYDAAEDNTLTFVENDKIINIEFVDDDWWLGELEKDGSKGLFPSNYVSLGN [chain 1 E550T]	-3.03
chain 1 MALEPIDYTTHSREIDAEYLKIVRGSDPDTTWLIISPNAKKEYEPESTGSSFHDFLQLFDETKVQYGLARVSPPGSDVEKIIIIGWCPDSAPLKTRASFAANFAAVANNLFKGYHVQVTARDEDDLDENELLMKISNAAGARYSIQTSSKQQGKASTPPVKKSFTPSKSPAPVSKKEPVKTPSPAPAAKISSRVNDNNDDDDWNEPELKERDFDQAPLKPNQSSYKPIGKIDLQKVIAEEKAKEDPRLVQKPTAAGSKIDPSSDIANLKNESKLKRDSEFNSFLGTTKPPSMTESSLKNDDDKVIKGFRNEKSPAQLWAERKAKQNSGNAETKAEAPKPEVPEDEPEGEPDVKDLKSKFEGLAASEKEEEEMENKFAPPPKKSEPTIISPKPFSKPQEPVKAEEAEQPKTDYKKIGNPLPGMHIEADNEEEPEENDDDWDDDEDEAAQPPLPSRNVASGAPVQKEEPEQEEIAPSLPSRNSIPAPKQEEAPEQAPEEEIEEEAEEAAPQLPSRSSAAPPPPPRRATPEKKPKENPWATAEYDYDAAEDNWLTFVENDKIINIEFVDDDWWLGELEKDGSKGLFPSNYVSLGN [chain 1 E550W]	< -3.06
chain 1 MALEPIDYTTHSREIDAEYLKIVRGSDPDTTWLIISPNAKKEYEPESTGSSFHDFLQLFDETKVQYGLARVSPPGSDVEKIIIIGWCPDSAPLKTRASFAANFAAVANNLFKGYHVQVTARDEDDLDENELLMKISNAAGARYSIQTSSKQQGKASTPPVKKSFTPSKSPAPVSKKEPVKTPSPAPAAKISSRVNDNNDDDDWNEPELKERDFDQAPLKPNQSSYKPIGKIDLQKVIAEEKAKEDPRLVQKPTAAGSKIDPSSDIANLKNESKLKRDSEFNSFLGTTKPPSMTESSLKNDDDKVIKGFRNEKSPAQLWAERKAKQNSGNAETKAEAPKPEVPEDEPEGEPDVKDLKSKFEGLAASEKEEEEMENKFAPPPKKSEPTIISPKPFSKPQEPVKAEEAEQPKTDYKKIGNPLPGMHIEADNEEEPEENDDDWDDDEDEAAQPPLPSRNVASGAPVQKEEPEQEEIAPSLPSRNSIPAPKQEEAPEQAPEEEIEEEAEEAAPQLPSRSSAAPPPPPRRATPEKKPKENPWATAEYDYDAAEDNELTFVENDKIINIPFVDDDWWLGELEKDGSKGLFPSNYVSLGN [chain 1 E563P]	-3.04
chain 1 MALEPIDYTTHSREIDAEYLKIVRGSDPDTTWLIISPNAKKEYEPESTGSSFHDFLQLFDETKVQYGLARVSPPGSDVEKIIIIGWCPDSAPLKTRASFAANFAAVANNLFKGYHVQVTARDEDDLDENELLMKISNAAGARYSIQTSSKQQGKASTPPVKKSFTPSKSPAPVSKKEPVKTPSPAPAAKISSRVNDNNDDDDWNEPELKERDFDQAPLKPNQSSYKPIGKIDLQKVIAEEKAKEDPRLVQKPTAAGSKIDPSSDIANLKNESKLKRDSEFNSFLGTTKPPSMTESSLKNDDDKVIKGFRNEKSPAQLWAERKAKQNSGNAETKAEAPKPEVPEDEPEGEPDVKDLKSKFEGLAASEKEEEEMENKFAPPPKKSEPTIISPKPFSKPQEPVKAEEAEQPKTDYKKIGNPLPGMHIEADNEEEPEENDDDWDDDEDEAAQPPLPSRNVASGAPVQKEEPEQEEIAPSLPSRNSIPAPKQEEAPEQAPEEEIEEEAEEAAPQLPSRSSAAPPPPPRRATPEKKPKENPWATAEYDYDAAEDNELTFVENDKIINIEFVDDDWWLGPLEKDGSKGLFPSNYVSLGN [chain 1 E573P]	< -3.06
chain 1 MALEPIDYTTHSREIDAEYLKIVRGSDPDTTWLIISPNAKKEYEPESTGSSFHDFLQLFDETKVQYGLARVSPPGSDVEKIIIIGWCPDSAPLKTRASFAANFAAVANNLFKGYHVQVTARDEDDLDENELLMKISNAAGARYSIQTSSKQQGKASTPPVKKSFTPSKSPAPVSKKEPVKTPSPAPAAKISSRVNDNNDDDDWNEPELKERDFDQAPLKPNQSSYKPIGKIDLQKVIAEEKAKEDPRLVQKPTAAGSKIDPSSDIANLKNESKLKRDSEFNSFLGTTKPPSMTESSLKNDDDKVIKGFRNEKSPAQLWAERKAKQNSGNAETKAEAPKPEVPEDEPEGEPDVKDLKSKFEGLAASEKEEEEMENKFAPPPKKSEPTIISPKPFSKPQEPVKAEEAEQPKTDYKKIGNPLPGMHIEADNEEEPEENDDDWDDDEDEAAQPPLPSRNVASGAPVQKEEPEQEEIAPSLPSRNSIPAPKQEEAPEQAPEEEIEEEAEEAAPQLPSRSSAAPPPPPRRATPEKKPKENPWATAEYDYDAAEDNELTAVENDKIINIEFVDDDWWLGELEKDGSKGLFPSNYVSLGN [chain 1 F553A]	-3.03
chain 1 MALEPIDYTTHSREIDAEYLKIVRGSDPDTTWLIISPNAKKEYEPESTGSSFHDFLQLFDETKVQYGLARVSPPGSDVEKIIIIGWCPDSAPLKTRASFAANFAAVANNLFKGYHVQVTARDEDDLDENELLMKISNAAGARYSIQTSSKQQGKASTPPVKKSFTPSKSPAPVSKKEPVKTPSPAPAAKISSRVNDNNDDDDWNEPELKERDFDQAPLKPNQSSYKPIGKIDLQKVIAEEKAKEDPRLVQKPTAAGSKIDPSSDIANLKNESKLKRDSEFNSFLGTTKPPSMTESSLKNDDDKVIKGFRNEKSPAQLWAERKAKQNSGNAETKAEAPKPEVPEDEPEGEPDVKDLKSKFEGLAASEKEEEEMENKFAPPPKKSEPTIISPKPFSKPQEPVKAEEAEQPKTDYKKIGNPLPGMHIEADNEEEPEENDDDWDDDEDEAAQPPLPSRNVASGAPVQKEEPEQEEIAPSLPSRNSIPAPKQEEAPEQAPEEEIEEEAEEAAPQLPSRSSAAPPPPPRRATPEKKPKENPWATAEYDYDAAEDNELTDVENDKIINIEFVDDDWWLGELEKDGSKGLFPSNYVSLGN [chain 1 F553D]	< -3.06
chain 1 MALEPIDYTTHSREIDAEYLKIVRGSDPDTTWLIISPNAKKEYEPESTGSSFHDFLQLFDETKVQYGLARVSPPGSDVEKIIIIGWCPDSAPLKTRASFAANFAAVANNLFKGYHVQVTARDEDDLDENELLMKISNAAGARYSIQTSSKQQGKASTPPVKKSFTPSKSPAPVSKKEPVKTPSPAPAAKISSRVNDNNDDDDWNEPELKERDFDQAPLKPNQSSYKPIGKIDLQKVIAEEKAKEDPRLVQKPTAAGSKIDPSSDIANLKNESKLKRDSEFNSFLGTTKPPSMTESSLKNDDDKVIKGFRNEKSPAQLWAERKAKQNSGNAETKAEAPKPEVPEDEPEGEPDVKDLKSKFEGLAASEKEEEEMENKFAPPPKKSEPTIISPKPFSKPQEPVKAEEAEQPKTDYKKIGNPLPGMHIEADNEEEPEENDDDWDDDEDEAAQPPLPSRNVASGAPVQKEEPEQEEIAPSLPSRNSIPAPKQEEAPEQAPEEEIEEEAEEAAPQLPSRSSAAPPPPPRRATPEKKPKENPWATAEYDYDAAEDNELTEVENDKIINIEFVDDDWWLGELEKDGSKGLFPSNYVSLGN [chain 1 F553E]	< -3.06
